Binding score data for 12 molecules are collected here from PMC11098746 (2024).

The chains are these.
B1: ADP372 (protein)
chain: MARAMAAAWPLLLVALLVLSWPPPGTGDVVVQAPTQVPGFLGDSVTLPCYLQVPNMEVTHVSQLTWARHGESGSMAVFHQTQGPSYSESKRLEFVAARLGAELRNASLRMFGLRVEDEGNYTCLFVTFPQGSRSVDIWLRVLAKPQNTAEVQKVQLTGEPVPMARCVSTGGRPPAQITWHSDLGGMPNTSQVPGFLSGTVTVTSLWILVPSSQVDGKNVTCKVEHESFEKPQLLTVNLTVYYPPEVSISGYDNNWYLGQNEATLTCDARSNPEPTGYNWSTTMGPLPPFAVAQGAQLLIRPVDKPINTTLICNVTNALGARQAELTVQVKEGPPSEHSGISRN
modifications: bait human Fc-tagged dimer
B2: ADP293 (protein)
chain: MALLPRLLLLLLLVFPATVLFRGGPRGLLAVAQDLTEDEETVEDSIIEDEDDEAEVEEDEPTDLVEDKEEEDVSGEPEASPSADTTILFVKGEDFPANNIVKFLVGFTNKGTEDFIVESLDASFRYPQDYQFYIQNFTALPLNTVVPPQRQATFEYSFIPAEPMGGRPFGLVINLNYKDLNGNVFQDAVFNQTVTVIEREDGLDGET
modifications: bait human Fc-tagged dimer
B3: ADP334 (protein)
chain: MASGRDERPPWRLGRLLLLMCLLLLGSSARAAHIKKAEATTTTTSAGAEAAEGQFDRYYHEEELESALREAAAAGLPGLARLFSIGRSVEGRPLWVLRLTAGLGSLIPEGDAGPDAAGPDAAGPLLPGRPQVKLVGNMHGDETVSRQVLIYLARELAAGYRRGDPRLVRLLNTTDVYLLPSLNPDGFERAREGDCGFGDGGPSGASGRDNSRGRDLNRSFPDQFSTGEPPALDEVPEVRALIEWIRRNKFVLSGNLHGGSVVASYPFDDSPEHKATGIYSKTSDDEVFKYLAKAYASNHPIMKTGEPHCPGDEDETFKDGITNGAHWYDVEGGMQDYNYVWANCFEITLELSCCKYPPASQLRQEWENNRESLITLIEKVHIGVKGFVKDSITGSGLENATISVAGINHNITTGRFGDFYRLLVPGTYNLTVVLTGYMPLTVTNVVVKEGPATEVDFSLRPTVTSVIPDTTEAVSTASTVAIPNILSGTSSSYQPIQPKDFHHHHFPDMEIFLRRFANEYPNITRLYSLGKSVESRELYVMEISDNPGVHEPGEPEFKYIGNMHGNEVVGRELLLNLIEYLCKNFGTDPEVTDLVHNTRIHLMPSMNPDGYEKSQEGDSISVIGRNNSNNFDLNRNFPDQFVQITDPTQPETIAVMSWMKSYPFVLSANLHGGSLVVNYPFDDDEQGLATYSKSPDDAVFQQIALSYSKENSQMFQGRPCKNMYPNEYFPHGITNGASWYNVPGGMQDWNYLQTNCFEVTIELGCVKYPLEKELPNFWEQNRRSLIQFMKQVHQGVRGFVLDATDGRGILNATISVAEINHPVTTYKTGDYWRLLVPGTYKITASARGYNPVTKNVTVKSEGAIQVNFTLVRSSTDSNNESKKGKGASSSTNDASDPTTKEFETLIKDLSAENGLESLMLRSSSNLALALYRYHSYKDLSEFLRGLVMNYPHITNLTNLGQSTEYRHIWSLEISNKPNVSEPEEPKIRFVAGIHGNAPVGTELLLALAEFLCLNYKKNPAVTQLVDRTRIVIVPSLNPDGRERAQEKDCTSKIGQTNARGKDLDTDFTNNASQPETKAIIENLIQKQDFSLSVALDGGSMLVTYPYDKPVQTVENKETLKHLASLYANNHPSMHMGQPSCPNKSDENIPGGVMRGAEWHSHLGSMKDYSVTYGHCPEITVYTSCCYFPSAARLPSLWADNKRSLLSMLVEVHKGVHGFVKDKTGKPISKAVIVLNEGIKVQTKEGGYFHVLLAPGVHNIIAIADGYQQQHSQVFVHHDAASSVVIVFDTDNRIFGLP
modifications: bait human Fc-tagged dimer
B4: ADP292 (protein)
chain: MARPGSAQRWAAVAGRWGCRLLALLLLVPGPGGASEITFELPDNAKQCFYEDIAQGTKCTLEFQVITGGHYDVDCRLEDPDGKVLYKEMKKQYDSFTFTASKNGTYKFCFSNEFSTFTHKTVYFDFQVGEDPPLFPSENRVSALTQMESACVSIHEALKSVIDYQTHFRLREAQGRSRAEDLNTRVA
modifications: bait human Fc-tagged dimer
B5: ADP332 (protein)
chain: MAPPGRRECPFPSWRFPGLLLAAMVLLLYSFSDACEEPPTFEAMELIGKPKPYYEIGERVDYKCKKGYFYIPPLATHTICDRNHTWLPVSDDACYRETCPYIRDPLNGQAVPANGTYEFGYQMHFICNEGYYLIGEEILYCELKGSVAIWSGKPPICEKVLCTPPPKIKNGKHTFSEVEVFEYLDAVTYSCDPAPGPDPFSLIGESTIYCGDNSVWSRAAPECKVVKCRFPVVENGKQISGFGKKFYYKATVMFECDKGFYLDGSDTIVCDSNSTWDPPVPKCLKVLPPSSTKPPALSHSVSTSSTTKSPASSASGPRPTYKPPVSNYPGYPKPEEGILDSLDV
modifications: bait human Fc-tagged dimer
B6: ADP270 (protein)
chain: ALSPKCLDWWQEGPMYQIYPRSFKDSNKDGNGDLKGIQDKLDYITALNIKTVWITSFYKSSLKDFRYGVEDFREVDPIFGTMEDFENLVAAIHDKGLKLIIDFIPNHTSDKHIWFQLSRTRTGKYTDYYIWHDCTHENGKTIPPNNWLSVYGNSSWHFDEVRNQCYFHQFMKEQPDLNFRNPDVQEEIKEILRFWLTKGVDGFSLDAVKFLLEAKHLRDEIQVNKTQIPDTVTQYSELYHDFTTTQVGMHDIVRSFRQTMDQYSTEPGRYRFMGTEAYAESIDRTVMYYGLPFIQEADFPFNNYLSMLDTVSGNSVYEVITSWMENMPEGKWPNWMIGGPDSSRLTSRLGNQYVNVMNMLLFTLPGTPITYYGEEIGMGNIVAANLNESYDINTLRSKSPMQWDNSSNAGFSEASNTWLPTNSDYHTVNVDVQKTQPRSALKLYQDLSLLHANELLLNRGWFCHLRNDSHYVVYTRELDGIDRIFIVVLNFGESTLLNLHNMISGLPAKMRIRLSTNSADKGSKVDTSGIFLDKGEGLIFEHNTKNLLHRQTAFRDRCFVSNRACYSSVLNILYTSC
modifications: bait human Fc-tagged dimer
B7: ADP299 (protein)
chain: MDLRQFLMCLSLCTAFALSKPTEKKDRVHHEPQLSDKVHNDAQSFDYDHDAFLGAEEAKTFDQLTPEESKERLGKIVSKIDGDKDGFVTVDELKDWIKFAQKRWIYEDVERQWKGHDLNEDGLVSWEEYKNATYGYVLDDPDPDDGFNYKQMMVRDERRFKMADKDGDLIATKEEFTAFLHPEEYDYMKDIVVQETMEDIDKNADGFIDLEEYIGDMYSHDGNTDEPEWVKTEREQFVEFRDKNRDGKMDKEETKDWILPSDYDHAEAEARHLVYESDQNKDGKLTKEEIVDKYDLFVGSQATDFGEALVRHDEF
modifications: bait human Fc-tagged dimer
B8: ADP319 (protein)
chain: MVSSGCRMRSLWFIIVISFLPNTEGFSRAALPFGLVRRELSCEGYSIDLRCPGSDVIMIESANYGRTDDKICDADPFQMENTDCYLPDAFKIMTQRCNNRTQCIVVTGSDVFPDPCPGTYKYLEVQYECVPYIFVCPGTLKAIVDSPCIYEAEQKAGAWCKDPLQAADKIYFMPWTPYRTDTLIEYASLEDFQNSRQTTTYKLPNRVDGTGFVVYDGAVFFNKERTRNIVKFDLRTRIKSGEAIINYANYHDTSPYRWGGKTDIDLAVDENGLWVIYATEQNNGMIVISQLNPYTLRFEATWETVYDKRAASNAFMICGVLYVVRSVYQDNESETGKNSIDYIYNTRLNRGEYVDVPFPNQYQYIAAVDYNPRDNQLYVWNNNFILRYSLEFGPPDPAQVPTTAVTITSSAELFKTIISTTSTTSQKGPMSTTVAGSQEGSKGTKPPPAVSTTKIPPITNIFPLPERFCEALDSKGIKWPQTQRGMMVERPCPKGTRGTASYLCMISTGTWNPKGPDLSNCTSHWVNQLAQKIRSGENAASLANELAKHTKGPVFAGDVSSSVRLMEQLVDILDAQLQELKPSEKDSAGRSYNKLQKREKTCRAYLKAIVDTVDNLLRPEALESWKHMNSSEQAHTATMLLDTLEEGAFVLADNLLEPTRVSMPTENIVLEVAVLSTEGQIQDFKFPLGIKGAGSSIQLSANTVKQNSRNGLAKLVFIIYRSLGQFLSTENATIKLGADFIGRNSTIAVNSHVISVSINKESSRVYLTDPVLFTLPHIDPDNYFNANCSFWNYSERTMMGYWSTQGCKLVDTNKTRTTCACSHL
modifications: bait human Fc-tagged dimer
B9: ADP312 (protein)
chain: MALDRPGEGATMLKTFTVLLFCIRMSLGMTSIVMDPQPELWIESNYPQAPWENITLWCRSPSRISSKFLLLKDKTQMTWIRPSHKTFQVSFLIGALTESNAGLYRCCYWKETGWSKPSKVLELEAPGQLPKPIFWIQAETPALPGCNVNILCHGWLQDLVFMLFKEGYAEPVDYQVPTGTMAIFSIDNLTPEDEGVYICRTHIQMLPTLWSEPSNPLKLVVAGLYPKPTLTAHPGPIMAPGESLNLRCQGPIYGMTFALMRVEDLEKSFYHKKTIKNEANFFFQSLKIQDTGHYLCFYYDASYRGSLLSDVLKIWVTDTFPKTWLLARPSAVVQMGQNVSLRCRGPVDGVGLALYKKGEDKPLQFLDATSIDDNTSFFLNNVTYSDTGIYSCHYLLTWKTSIRMPSHNTVELMVVDKPPKPSLSAWPSTVFKLGKAITLQCRVSHPVLEFSLEWEERETFQKFSVNGDFIISNVDGKGTGTYSCSYRVETHPNIWSHRSEPLKLMGPAGYLTWNYVLN
modifications: bait human Fc-tagged dimer
B10: ADP347 (protein)
chain: MAATLGPLGSWQQWRRCLSARDGSRMLLLLLLLGSGQGPQQVGAGQTFEYLKREHSLSKPYQGVGTGSSSLWNLMGNAMVMTQYIRLTPDMQSKQGALWNRVPCFLRDWELQVHFKIHGQGKKNLHGDGLAIWYTKDRMQPGPVFGNMDKFVGLGVFVDTYPNEEKQQERVFPYISAMVNNGSLSYDHERDGRPTELGGCTAIVRNLHYDTFLVIRYVKRHLTIMMDIDGKHEWRDCIEVPGVRLPRGYYFGTSSITGDLSDNHDVISLKLFELTVERTPEEEKLHRDVFLPSVDNMKLPEMTAPLPPLSGLA
modifications: bait human Fc-tagged dimer
B11: ADP395 (protein)
chain: FVNKDQIAKDVKQFYDQALQQAVVDDDANNAKAVVKTFHETLDCCGSSTLTALTTSVLKNNLCPSGSNIISNLFKEDCHQKIDDLFSGK
modifications: bait human Fc-tagged dimer
B12: ADP111 (protein)
chain: MVLLRVLILLLSWAAGMGGQYGNPLNKYIRHYEGLSYNVDSLHQKHQRAKRAVSHEDQFLRLDFHAHGRHFNLRMKRDTSLFSDEFKVETSNKVLDYDTSHIYTGHIYGEEGSFSHGSVIDGRFEGFIQTRGGTFYVEPAERYIKDRTLPFHSVIYHEDDINYPHKYGPQGGCADHSVFERMRKYQMTGVEEVTQIPQEEHAANGPELLRKKRTTSAEKNTCQLYIQTDHLFFKYYGTREAVIAQISSHVKAIDTIYQTTDFSGIRNISFMVKRIRINTTADEKDPTNPFRFPNIGVEKFLELNSEQNHDDYCLAYVFTDRDFDDGVLGLAWVGAPSGSSGGICEKSKLYSDGKKKSLNTGIITVQNYGSHVPPKVSHITFAHEVGHNFGSPHDSGTECTPGESKNLGQKENGNYIMYARATSGDKLNNNKFSLCSIRNISQVLEKKRNNCFVESGQPICGNGMVEQGEECDCGYSDQCKDECCFDANQPEGRKCKLKPGKQCSPSQGPCCTAQCAFKSKSEKCRDDSDCAREGICNGFTALCPASDPKPNFTDCNRHTQVCINGQCAGSICEKYGLEECTCASSDGKDDKELCHVCCMKKMDPSTCASTGSVQWSRHFSGRTITLQPGSPCNDFRGYCDVFMRCRLVDADGPLARLKKAIFSPELYENIAEW
modifications: bait human Fc-tagged dimer

The assay deals with Circumsporozoite protein (CSP) (Plasmodium falciparum (isolate 3D7), UniProt Q7K740). The experiment in a line: AVEXIS screen signal:noise (double-corrected).
Chain of Circumsporozoite protein (CSP) (Q7K740 19-374): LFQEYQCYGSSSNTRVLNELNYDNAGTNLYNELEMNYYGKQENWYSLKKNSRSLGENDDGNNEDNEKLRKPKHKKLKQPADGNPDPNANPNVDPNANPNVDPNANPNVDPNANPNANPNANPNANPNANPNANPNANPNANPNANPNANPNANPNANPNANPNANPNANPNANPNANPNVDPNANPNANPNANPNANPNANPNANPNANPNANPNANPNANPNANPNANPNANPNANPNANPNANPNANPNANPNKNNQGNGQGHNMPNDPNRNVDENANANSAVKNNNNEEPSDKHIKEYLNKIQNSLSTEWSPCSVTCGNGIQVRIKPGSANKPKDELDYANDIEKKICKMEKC
B1 gave a binding score of 1.04. For B2, the binding score turned out to be 1.28. As for B3, the figure is 1.2; as for B4, 1.08; as for B5, 0.982.

B6 gave a binding score of 7.97.

B7 yielded a binding score of 1.11. As for B8, the figure is 1.9; as for B9, 0.61. In turn, B10 came in with a binding score of 0.741. In the case of B11 it was 1.84. As for B12, the figure is 0.777.
